Here are results for six sequences from patent US20180084767.

What all share (experiment): cell_activity
Data set [1] deals with ssBAG3 4.1 L TALEN (Xanthomonas (engineered)?). To be noted: as pair with 4.1 R; transfected cells.
Data set [2] deals with ssTTN 5.1 R TALEN (Xanthomonas (engineered)?). The note with it: as pair with 5.1 L; TALEN mRNA transfected.
In data set [3] the test system is ssTTN 3.1 R TALEN (Xanthomonas (engineered)?). The note with it: as pair with 3.1 L; TALEN mRNA transfected.
The test system of data set [4] is ssTTN 3.1 L TALEN (Xanthomonas (engineered)?). The note with it: as pair with 3.1 R; TALEN mRNA transfected.
Data set [5] concerns ssTTN 5.1 L TALEN (Xanthomonas (engineered)?). To be noted: as pair with 5.1 R; TALEN mRNA transfected.
For data set [6], the system named is ssBAG3 4.1 R TALEN (Xanthomonas (engineered)?). The note with it: as pair with 4.1 L; transfected cells.

Consider “TGAAGGCAAGAAGACAGAC (double strand) [ssBAG3 4.1 L site]”, for which the activity in data set [1] was found to be 21.3 % editing.

In turn, “CCAATTCCCAAGTAAT (double strand) [ssTTN 5.1 R site]” registered an activity in data set [2] of 44.9 % editing.

As to “GTCCTAACATTTTATAT (double strand) [ssTTN 3.1 R site]”, the activity in data set [3] came out at 60 % editing.

The sequence “GTCATATCCATAAAAAAC (double strand) [ssTTN 3.1 L site]” returned an activity in data set [4] of 60 % editing.

Sequence “CAGTCATGCAATTTT (double strand) [ssTTN 5.1 L site]” returned an activity in data set [5] of 44.9 % editing.

Take “TGGTCAAATACTCTTCTAT (double strand) [ssBAG3 4.1 R site]”: in data set [6], the activity was 21.3 % editing.
